Patent US10377811B2, “Peptides, combination of peptides as targets and for use in immunotherapy against gallbladder cancer and cholangiocarcinoma and other cancers” (Immatics biotechnologies GmbH, priority 2016, dated 2019)

These substances were tested against HLA-A*02:01 (Homo sapiens, UniProt P04439, D140Y/D185E/D98H/E176V/E277Q/G131W/G231S/I119V/I121R/I166T/I218V/L300P/L318F/N151K/N90K/P208A/P217A/Q86G/Q94H/R138H/R169H/T345S) (assay: MHC binding assay (UV-ligand exchange, β2m ELISA)). Conditions: peptide exchange yield.
Excerpt: Candidate peptides for T cell based therapies according to the present invention were further tested for their MHC binding capacity (affinity). The individual peptide-MHC complexes were produced by UV-ligand exchange, where a UV-sensitive peptide is cleaved upon UV-irradiation, and exchanged with the peptide of interest as analyzed. Only peptide candidates that can effectively bind and stabilize the peptide-receptive MHC molecules prevent dissociation of the MHC complexes. To determine the yield of the exchange reaction, an ELISA was performed based on the detection of the light chain (β2m) of stabilized MHC complexes. The assay was performed as generally described in Rodenko et al. (Rodenko et al., 2006).
96 well MAXISorp plates (NUNC) were coated over night with 2 ug/ml streptavidin in PBS at room temperature, washed 4× and blocked for 1 h at 37° C. in 2% BSA containing blocking buffer. Refolded HLA-A*02:01/MLA-001 monomers served as standards, covering the range of 15-500 ng/ml. Peptide-MHC monomers of the UV-exchange reaction were diluted 100-fold in blocking buffer. Samples were incubated for 1 h at 37° C., washed four times, incubated with 2 ug/ml HRP conjugated anti-β2 m for 1 h at 37° C., washed again and detected with TMB solution that is stopped with […]. Absorption was measured at 450 nm. Candidate peptides that show a high exchange yield (preferably higher than 50%, most preferred higher than 75%) are generally preferred for a generation and production of antibodies or fragments thereof, and/or T cell receptors or fragments thereof, as they show sufficient avidity to the MHC molecules and prevent dissociation of the MHC complexes.

For “31 (IAIPFLIKL; listed as Homo sapiens) [compound 31]”, which “Peptide exchange (MHC class I binding score)” value (“Peptide exchange” for short) is on record?
Its value is “++++ (>75% = ++++)”.

With “13 (VLPRAFTYV; listed as Homo sapiens) [compound 13]” as the substance, how does the “Peptide exchange” value read?
The value was “++++ (>75% = ++++)”.

For “6 (LLLPLLPPLSPS; listed as Homo sapiens) [compound 6]”, which “Peptide exchange” value is on record?
The value was “++++ (>75% = ++++)”.

With “32 (YVISQVFEI; listed as Homo sapiens) [compound 32]” as the substance, how does the “Peptide exchange” value read?
The value was “++++ (>75% = ++++)”.

How did the “Peptide exchange” value turn out when “29 (FASEVSNVL; listed as Homo sapiens) [compound 29]” was run?
Its value is “++++ (>75% = ++++)”.

With “5 (GLIDEVMVLL; listed as Homo sapiens) [compound 5]” as the substance, how does the “Peptide exchange” value read?
Its value is “++++ (>75% = ++++)”.

Which “Peptide exchange” value does the source give for “19 (TAYPQVVVV; listed as Homo sapiens) [compound 19]” here?
Its value is “++ (>20% = ++)”.

How did the “Peptide exchange” value turn out when “11 (SIIDFTVTM; listed as Homo sapiens) [compound 11]” was run?
Its value is “++++ (>75% = ++++)”.

For “25 (NLSETASTMAL; listed as Homo sapiens) [compound 25]”, which “Peptide exchange” value is on record?
Its value is “++++ (>75% = ++++)”.

Which “Peptide exchange” value does the source give for “14 (YGIEFVVGV; listed as Homo sapiens) [compound 14]” here?
Its value is “++++ (>75% = ++++)”.

For “4 (FLLEAQNYL; listed as Homo sapiens) [compound 4]”, which “Peptide exchange” value is on record?
The value was “++++ (>75% = ++++)”.

How did the “Peptide exchange” value turn out when “17 (VLYDNTQLQL; listed as Homo sapiens) [compound 17]” was run?
The value was “++++ (>75% = ++++)”.

With “18 (SLSPDLSQV; listed as Homo sapiens) [compound 18]” as the substance, how does the “Peptide exchange” value read?
Its value is “+++ (>50 = +++)”.

How did the “Peptide exchange” value turn out when “23 (SLLSELLGV; listed as Homo sapiens) [compound 23]” was run?
The value was “++++ (>75% = ++++)”.

“1 (YAAEIASAL; listed as Homo sapiens) [compound 1]” was tested. Which “Peptide exchange” value did it give?
Its value is “+++ (>50 = +++)”.

For “8 (LSASLVRIL; listed as Homo sapiens) [compound 8]”, which “Peptide exchange” value is on record?
The value was “+ (>10% = +)”.

How did the “Peptide exchange” value turn out when “3 (EMDSTVITV; listed as Homo sapiens) [compound 3]” was run?
Its value is “+++ (>50 = +++)”.

“24 (ISAPLVKTL; listed as Homo sapiens) [compound 24]” was tested. Which “Peptide exchange” value did it give?
Its value is “+ (>10% = +)”.

For “20 (VLQDELPQL; listed as Homo sapiens) [compound 20]”, which “Peptide exchange” value is on record?
Its value is “++++ (>75% = ++++)”.

With “9 (RLAKLTAAV; listed as Homo sapiens) [compound 9]” as the substance, how does the “Peptide exchange” value read?
Its value is “++++ (>75% = ++++)”.

Which “Peptide exchange” value does the source give for “2 (AAYPEIVAV; listed as Homo sapiens) [compound 2]” here?
The value was “+++ (>50 = +++)”.

For “26 (TAQTLVRIL; listed as Homo sapiens) [compound 26]”, which “Peptide exchange” value is on record?
The value was “+ (>10% = +)”.

Which “Peptide exchange” value does the source give for “10 (SAFPFPVTVSL; listed as Homo sapiens) [compound 10]” here?
The value was “++ (>20% = ++)”.

For “15 (SVIDSLPEI; listed as Homo sapiens) [compound 15]”, which “Peptide exchange” value is on record?
The value was “++++ (>75% = ++++)”.

With “16 (AVMTDLPVI; listed as Homo sapiens) [compound 16]” as the substance, how does the “Peptide exchange” value read?
Its value is “++++ (>75% = ++++)”.

“7 (LLLSDPDKVTI; listed as Homo sapiens) [compound 7]” was tested. Which “Peptide exchange” value did it give?
Its value is “++++ (>75% = ++++)”.

“27 (ALAEQVQKA; listed as Homo sapiens) [compound 27]” was tested. Which “Peptide exchange” value did it give?
Its value is “+++ (>50 = +++)”.

“21 (IAFPTSISV; listed as Homo sapiens) [compound 21]” was tested. Which “Peptide exchange” value did it give?
Its value is “+++ (>50 = +++)”.

“22 (SAFGFPVIL; listed as Homo sapiens) [compound 22]” was tested. Which “Peptide exchange” value did it give?
The value was “++ (>20% = ++)”.

Which “Peptide exchange” value does the source give for “28 (YASGSSASL; listed as Homo sapiens) [compound 28]” here?
Its value is “+ (>10% = +)”.

For “12 (TILPGNLQSW; listed as Homo sapiens) [compound 12]”, which “Peptide exchange” value is on record?
The value was “+ (>10% = +)”.

Which “Peptide exchange” value does the source give for “30 (FASGLIHRV; listed as Homo sapiens) [compound 30]” here?
The value was “+++ (>50 = +++)”.

The substances below were run on CD8+ T cells of healthy HLA-A*02 donors (assay: In vitro T-cell priming immunogenicity assay with aAPCs loaded with peptide/MHC complexes and anti-CD28 antibody, multimer readout). Conditions: HLA class I peptides, Table 10A.
Assay type: cell-based, human
Excerpt: In order to obtain information regarding the immunogenicity of the TUMAPs of the present invention, the inventors performed investigations using an in vitro T-cell priming assay based on repeated stimulations of CD8+ T cells with artificial antigen presenting cells (aAPCs) loaded with peptide/MHC complexes and anti-CD28 antibody.
In order to perform in vitro stimulations by artificial antigen presenting cells loaded with peptide-MHC complex (pMHC) and anti-CD28 antibody, the inventors first isolated CD8+ T cells from fresh HLA-A*02 leukapheresis products via positive selection using CD8 microbeads (Miltenyi Biotec, Bergisch-Gladbach, Germany) of healthy donors obtained from the University clinics Mannheim, Germany, after informed consent.
PBMCs and isolated CD8+ lymphocytes were incubated in T-cell medium (TCM) until use consisting of RPMI-Glutamax (Invitrogen, Karlsruhe, Germany) supplemented with 10% heat inactivated human AB serum (PAN-Biotech, Aidenbach, Germany), 100 U/ml Penicillin/100 μg/ml Streptomycin (Cambrex, Cologne, Germany), 1 mM sodium pyruvate (CC Pro, Oberdorla, Germany), 20 μg/ml Gentamycin (Cambrex). 2.5 ng/ml IL-7 (PromoCell, Heidelberg, Germany) and 10 U/ml IL-2 (Novartis Pharma, Nürnberg, Germany) were also added to the TCM at this step.
Generation of pMHC/anti-CD28 coated beads, T-cell stimulations and readout was performed in a highly defined in vitro system using four different pMHC molecules per stimulation condition and 8 different pMHC molecules per readout condition.
The purified co-stimulatory mouse IgG2a anti human CD28 Ab 9.3 (Jung et al., 1987) was chemically biotinylated using Sulfo-N-hydroxysuccinimidobiotin as recommended by the manufacturer (Perbio, Bonn, Germany). Beads used were 5.6 μm diameter streptavidin coated polystyrene particles (Bangs Laboratories, Ill., USA).
800.000 beads/200 μl were coated in 96-well plates in the presence of 4×12.5 ng different biotin-pMHC, washed and 600 ng biotin anti-CD28 were added subsequently in a volume of 200 μl. Stimulations were initiated in 96-well plates by co-incubating […] CD8+ T cells with 2×10^5 washed coated beads in 200 μl TCM supplemented with 5 ng/ml IL-12 (PromoCell) for 3 days at 37° C. Half of the medium was then exchanged by fresh TCM supplemented with 80 U/ml IL-2 and incubating was continued for 4 days at 37° C. This stimulation cycle was performed for a total of three times. For the pMHC multimer readout using 8 different pMHC molecules per condition, a two-dimensional combinatorial coding approach was used as previously described (Andersen et al., 2012) with minor modifications encompassing coupling to 5 different fluorochromes. Finally, multimeric analyses were performed by staining the cells with Live/dead near IR dye (Invitrogen, Karlsruhe, Germany), CD8-FITC antibody clone SK1 (BD, Heidelberg, Germany) and fluorescent pMHC multimers. For analysis, a BD LSRII SORP cytometer equipped with appropriate lasers and filters was used. Peptide specific cells were calculated as percentage of total CD8+ cells. Evaluation of multimeric analysis was done using the FlowJo software (Tree Star, Oreg., USA). In vitro priming of specific multimer+ CD8+ lymphocytes was detected by comparing to negative control stimulations.

With “33 (ILGTEDLIVEV; listed as Homo sapiens) [compound 33]” as the substance, how does the “wells (in vitro immunogenicity)” value read?
The value was “++ (20%-49% = ++)”.

With “36 (ILVDWLVQV; listed as Homo sapiens) [compound 36]” as the substance, how does the “wells (in vitro immunogenicity)” value read?
Its value is “++ (20%-49% = ++)”.

With “38 (KIQEILTQV; listed as Homo sapiens) [compound 38]” as the substance, how does the “wells (in vitro immunogenicity)” value read?
The value was “++ (20%-49% = ++)”.

How did the “wells (in vitro immunogenicity)” value turn out when “34 (LLWGNLPEI; listed as Homo sapiens) [compound 34]” was run?
The value was “++ (20%-49% = ++)”.

With “35 (GLIDEVMVL; listed as Homo sapiens) [compound 35]” as the substance, how does the “wells (in vitro immunogenicity)” value read?
Its value is “++ (20%-49% = ++)”.

Same assay, conditions: HLA-A*02 restricted peptides, percentage of positive wells among evaluable, Table 10B

Which “Wells positive [%]” value does the source give for “13 (VLPRAFTYV; listed as Homo sapiens) [compound 13]” here?
The value was “++++ (> = 70% = ++++)”.

How did the “Wells positive [%]” value turn out when “6 (LLLPLLPPLSPS; listed as Homo sapiens) [compound 6]” was run?
Its value is “+ (<20% = +)”.

“25 (NLSETASTMAL; listed as Homo sapiens) [compound 25]” was tested. Which “Wells positive [%]” value did it give?
Its value is “++ (20%-49% = ++)”.

For “16 (AVMTDLPVI; listed as Homo sapiens) [compound 16]”, which “Wells positive [%]” value is on record?
The value was “+ (<20% = +)”.
